Broadly, the stoichiometry N is a count of units in the complex or per binding partner.

Series [1] deals with the molecule itself. The series is described as follows: cross-linking; purified p53 (315-360) incubated with purified RBEL1A or BSA (1:1 or 2:1 molar ratio) 1 hour at 4 C, then glutaraldehyde 5 minutes at 4 C; SDS-PAGE, anti-p53 (FL-393) blot.
For series [2], the target named is T1, purified recombinant full-length RBEL1A (UniProt Q3YEC7-1 1-729, purification (1): glycosylated (larger molecular mass); purification (2): unglycosylated or less glycosylated).
T1 construct: RBEL1A, Ras superfamily GTPase, full length; also called recombinant RBEL1A; RBEL1A (1); source: purified recombinant protein
T1 sequence (looked up): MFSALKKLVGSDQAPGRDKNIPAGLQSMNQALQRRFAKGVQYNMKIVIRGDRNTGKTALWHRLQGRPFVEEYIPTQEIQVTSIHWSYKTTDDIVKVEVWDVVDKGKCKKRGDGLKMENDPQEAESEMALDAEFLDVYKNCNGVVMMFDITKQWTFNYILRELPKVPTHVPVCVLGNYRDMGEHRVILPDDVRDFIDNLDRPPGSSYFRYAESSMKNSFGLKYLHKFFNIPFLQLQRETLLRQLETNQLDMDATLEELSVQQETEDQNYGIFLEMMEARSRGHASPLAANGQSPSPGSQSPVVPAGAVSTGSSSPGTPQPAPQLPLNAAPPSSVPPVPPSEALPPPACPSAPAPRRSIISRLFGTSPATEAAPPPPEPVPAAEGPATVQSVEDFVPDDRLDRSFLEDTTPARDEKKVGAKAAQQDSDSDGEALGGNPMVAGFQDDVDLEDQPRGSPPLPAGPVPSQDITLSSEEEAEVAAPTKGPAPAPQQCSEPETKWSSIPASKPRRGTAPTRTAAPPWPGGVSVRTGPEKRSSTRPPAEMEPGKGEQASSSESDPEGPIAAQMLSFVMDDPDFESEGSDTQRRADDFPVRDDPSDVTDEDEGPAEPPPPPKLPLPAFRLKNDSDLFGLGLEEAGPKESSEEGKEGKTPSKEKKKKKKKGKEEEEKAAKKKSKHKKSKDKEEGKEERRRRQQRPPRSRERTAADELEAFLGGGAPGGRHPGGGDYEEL
The series is described as above. The note with it: both partners purified.

B1: purified recombinant p53 tetramerization domain (residues 315-360) (domain or fragment, UniProt P04637 315-360, looked up)
chain: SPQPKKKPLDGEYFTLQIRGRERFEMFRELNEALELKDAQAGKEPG
notes: p53 tumor suppressor, residues 315-360 (tetramerization domain); also called p53-Oligo-D; recombinant p53 (315-360); source: purified recombinant polypeptide
Take B1: the “stoichiometry N” value in series [1] was 4. Further, the binding result in series [2] is “binds”.

The values above are taken from publication PMC4575918, “Regulation of p53 oligomerization by Ras superfamily protein RBEL1A” (Genes & Cancer, 2015).
